Measurements as given in PMC7308389.

Target: muscarinic acetylcholine receptor type 1 (M1R) (human) (UniProt P11229)
Chain of UniProt P11229 (P11229 whole entry): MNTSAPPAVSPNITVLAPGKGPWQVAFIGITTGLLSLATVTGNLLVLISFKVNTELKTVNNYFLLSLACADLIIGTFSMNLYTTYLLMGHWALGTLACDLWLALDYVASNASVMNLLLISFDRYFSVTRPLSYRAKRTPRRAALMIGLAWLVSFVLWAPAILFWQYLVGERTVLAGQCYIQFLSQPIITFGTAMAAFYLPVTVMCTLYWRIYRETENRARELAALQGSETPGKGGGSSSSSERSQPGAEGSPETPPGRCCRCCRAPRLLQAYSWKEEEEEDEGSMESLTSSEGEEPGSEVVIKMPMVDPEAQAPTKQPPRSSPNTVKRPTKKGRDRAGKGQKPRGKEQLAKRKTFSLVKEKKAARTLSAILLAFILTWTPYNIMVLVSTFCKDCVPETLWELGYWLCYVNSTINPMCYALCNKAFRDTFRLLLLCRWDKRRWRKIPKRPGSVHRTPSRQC

**Q.** With “Gi3_Δ5 (Gαi3 with the last five residues truncated, with added Gβγ) (from UniProt P08754 1-349; P62873 1-340; P59768 1-71) (complex)” as the substance, how does the M1R-induced [3H]GDP release from Gi3 Δ5 (Fig. 3c) (% GDP release) read?
**A.** 20
